Data reported in patent US20030125523A1 (VEGENICS, published 2003).
Each block holds one molecule with its values, some of them ahead of it.

What was measured:
[1] = target: NP-1 expressed on PAE-NP-1 cells (UniProt O14786); assay: competition of 125I-hVEGF165 (1 ng/ml) binding to PAE-NP-1 cells by 20 µg/ml GST fusion
[2] = target: T1, soluble Neuropilin-1-Ig fusion protein (extracellular domain of mouse NP-1 fused to the human IgG Fc-part) (mouse; human, UniProt P97333 22-856); assay: precipitation of 35S-labelled growth factor with NP-1-Ig on protein A sepharose, SDS-PAGE (FIG. 6)
T1 construct: extracellular domain; Made in transfected 293T cells and captured on protein A sepharose; also called NP-1-Ig; soluble NP-1-Ig; not shown: human IgG Fc-part encoded by the pIgplus vector (Ingenius)
T1 sequence (looked up): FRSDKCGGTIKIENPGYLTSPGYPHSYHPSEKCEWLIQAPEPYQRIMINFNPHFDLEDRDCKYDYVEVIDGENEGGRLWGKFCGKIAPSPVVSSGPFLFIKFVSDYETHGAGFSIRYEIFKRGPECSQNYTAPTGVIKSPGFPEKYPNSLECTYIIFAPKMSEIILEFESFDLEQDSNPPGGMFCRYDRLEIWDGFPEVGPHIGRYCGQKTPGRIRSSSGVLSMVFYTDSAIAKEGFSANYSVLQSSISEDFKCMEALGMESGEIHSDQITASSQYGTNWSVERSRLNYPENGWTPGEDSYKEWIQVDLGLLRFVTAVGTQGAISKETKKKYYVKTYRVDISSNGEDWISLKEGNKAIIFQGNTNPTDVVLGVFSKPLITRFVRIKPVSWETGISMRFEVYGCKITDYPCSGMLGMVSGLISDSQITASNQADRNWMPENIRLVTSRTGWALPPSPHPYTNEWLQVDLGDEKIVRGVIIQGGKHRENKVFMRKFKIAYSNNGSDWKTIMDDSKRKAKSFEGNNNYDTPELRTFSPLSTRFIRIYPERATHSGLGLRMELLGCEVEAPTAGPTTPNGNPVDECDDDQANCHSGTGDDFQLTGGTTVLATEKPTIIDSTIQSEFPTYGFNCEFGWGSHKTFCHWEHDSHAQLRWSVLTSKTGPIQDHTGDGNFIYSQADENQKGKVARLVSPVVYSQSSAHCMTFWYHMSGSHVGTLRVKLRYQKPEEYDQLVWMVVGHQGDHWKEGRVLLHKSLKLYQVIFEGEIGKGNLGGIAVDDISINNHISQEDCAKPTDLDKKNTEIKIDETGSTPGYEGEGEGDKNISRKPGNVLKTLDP

[3] = target: T1, soluble Neuropilin-1-Ig fusion protein …; assay: precipitation of 35S-labelled growth factor from conditioned medium with NP-1-Ig on protein A sepharose, SDS-PAGE (FIG. 3)
Protocol: 293-T or 293EBNA cells were similarly transfected with plasmids encoding hVEGF₁₆₅, mVEGF-B₁₆₇, mVEGF-B₁₈₆, hVEGF-C, hVEGF-D, PlGF-1 or PlGF-2, and the transfected cells were metabolically labeled 24 hours post transfection with 100 μCi/ml Pro-mix TML-³⁵S (Amersham) for 6 to 7 hours. 10 μg/ml heparin was added to the labeling medium to facilitate the release of the heparin sulphate-binding growth factors from the cell surface and pericellular matrix. Metabolically labeled media, with the exception of the medium used for VEGF transfection, were immunodepleted of endogenous VEGF by immunoprecipitating with VEGF antibody for two hours. Similar amounts of media containing the metabolically labeled growth factors were then used for immunoprecipitation or for receptor binding analysis. Growth factors were incubated for 3 hours at room temperature with receptor-Igs in binding buffer (phosphate buffered saline (PBS), 0.5% BSA, 0.2% Tween 20). The sepharose beads were then washed once with ice cold binding buffer and three times with PBS and analyzed by 15% SDS-PAGE.
Immunoprecipitations were carried out using specific antibodies against VEGF₁₆₅, VEGF-B₁₆₇, VEGF-B₁₈₆, VEGF-C, VEGF-D and protein A sepharose. […] In contrast, no significant binding was detected between NP-1-Ig and hVEGF-D or PlGF-1. […]

[4] = target: T1, soluble Neuropilin-1-Ig fusion protein …; assay: precipitation of 35S-labelled growth factor with NP-1-Ig on protein A sepharose, SDS-PAGE (FIG. 7)
[5] = target: T1, soluble Neuropilin-1-Ig fusion protein …; assay: precipitation of 35S-labelled growth factor from conditioned medium with NP-1-Ig on protein A sepharose, SDS-PAGE

Chain of NP-1 expressed on PAE-NP-1 cells (O14786 22-923 limits assumed): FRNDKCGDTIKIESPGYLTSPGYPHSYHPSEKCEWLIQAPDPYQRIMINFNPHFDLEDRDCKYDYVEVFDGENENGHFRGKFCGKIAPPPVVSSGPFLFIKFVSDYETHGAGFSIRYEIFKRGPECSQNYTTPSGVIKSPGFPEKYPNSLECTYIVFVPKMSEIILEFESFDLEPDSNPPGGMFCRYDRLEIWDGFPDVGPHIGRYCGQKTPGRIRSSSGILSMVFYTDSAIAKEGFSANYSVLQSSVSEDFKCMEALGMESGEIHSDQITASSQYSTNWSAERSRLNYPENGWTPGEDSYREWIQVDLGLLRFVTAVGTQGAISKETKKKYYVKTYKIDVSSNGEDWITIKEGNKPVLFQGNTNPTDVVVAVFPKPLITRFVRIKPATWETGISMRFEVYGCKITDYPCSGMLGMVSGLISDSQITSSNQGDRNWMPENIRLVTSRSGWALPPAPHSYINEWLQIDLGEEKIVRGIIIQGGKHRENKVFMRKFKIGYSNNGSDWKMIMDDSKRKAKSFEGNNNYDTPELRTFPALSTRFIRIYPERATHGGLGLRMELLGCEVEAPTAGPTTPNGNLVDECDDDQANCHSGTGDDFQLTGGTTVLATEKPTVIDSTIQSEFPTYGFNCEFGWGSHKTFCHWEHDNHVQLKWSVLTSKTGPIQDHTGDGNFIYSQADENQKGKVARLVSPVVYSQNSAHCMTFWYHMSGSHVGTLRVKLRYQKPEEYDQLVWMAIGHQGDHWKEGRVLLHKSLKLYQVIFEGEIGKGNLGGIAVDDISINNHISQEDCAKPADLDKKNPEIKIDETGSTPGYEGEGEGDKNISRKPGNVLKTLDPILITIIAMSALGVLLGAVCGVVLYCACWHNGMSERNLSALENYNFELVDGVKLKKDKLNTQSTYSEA

Molecule: GST-VEGF-B167 exon 6B fusion protein (GST fused to amino acids 117-161 of mVEGF-B167) (from UniProt P49766 117-161)
percent competition [1]: 50%

B3: human VEGF-C (full length) (ligand, UniProt P49767 32-419, looked up)
chain: FESGLDLSDAEPDAGEATAYASKDLEEQLRSVSSVDELMTVLYPEYWKMYKCQLRKGGWQHNREQANLNSRTEETIKFAAAHYNTEILKSIDNEWRKTQCMPREVCIDVGKEFGVATNTFFKPPCVSVYRCGGCCNSEGLQCMNTSTSYLSKTLFEITVPLSQGPKPVTISFANHTSCRCMSKLDVYRQVHSIIRRSLPATLPQCQAANKTCPTNYMWNNHICRCLAQEDFMFSSDAGDDSTDGFHDICGPNKELDEETCQCVCRAGLRPASCGPHKELDRNSCQCVCKNKLFPSQCGANREFDENTCQCVCKRTCPRNQPLNPGKCACECTESPQKCLLKGKKFHHQTCSCYRRPCTNRQKACEPGFSYSEEVCRCVPSYWKRPQMS
notes: 35S labelled, from conditioned medium of transfected cells; also called hVEGF-C; full length VEGF-C
binding result [4]: binds

B4: human VEGF165 (ligand, UniProt P15692-4 27-191, looked up)
chain: APMAEGGGQNHHEVVKFMDVYQRSYCHPIETLVDIFQEYPDEIEYIFKPSCVPLMRCGGCCNDEGLECVPTEESNITMQIMRIKPHQGQHIGEMSFLQHNKCECRPKKDRARQENPCGPCSERRKHLFVQDPQTCKCSCKNTDSRCKARQLELNERTCRCDKPRR
notes: also called hVEGF165; rhVEGF165
binding result [5]: binds

B5: mouse VEGF-B167 (ligand, UniProt P49766-2 22-188, looked up)
chain: PVSQFDGPSHQKKVVPWIDVYARATCQPREVVVPLSMELMGNVVKQLVPSCVTVQRCGGCCPDDGLECVPTGQHQVRMQILMIQYPSSQLGEMSLEEHSQCECRPKKKESAVKPDSPRILCPPCTQRRQRPDPRTCRCRCRRRRFLHCQGRGLELNPDTCRCRKPRK
notes: 35S metabolically labelled, from conditioned medium of transfected cells; also called mVEGF-B167
binding result [5]: binds

Further lines, results first:

binding result [2]: no binding
B1: mVEGF-BkEx1-5 (ligand, mouse, UniProt P49766 22-136, looked up)
chain: PVSQFDGPSHQKKVVPWIDVYARATCQPREVVVPLSMELMGNVVKQLVPSCVTVQRCGGCCPDDGLECVPTGQHQVRMQILMIQYPSSQLGEMSLEEHSQCECRPKKKESAVKPD
notes: domain: exons 1-5; also called murine VEGF-BkEx1-5; construct containing exons 1-5 of murine VEGF-B

binding result [3]: no binding
B2: PlGF-1 (ligand, UniProt P49763-2 19-149, looked up)
chain: LPAVPPQQWALSAGNGSSEVEVVPFQEVWGRSYCRALERLVDVVSEYPSEVEHMFSPSCVSLLRCTGCCGDENLHCVPVETANVTMQLLKIRSGDRPSYVELTFSQHVRCECRPLREKMKPERCGDAVPRR
notes: 35S labelled, from conditioned medium of transfected cells; also called placenta growth factor isoform 1
